# Results as given in IntAct's records for PubMed 23386615.
# B1: Peroxiredoxin-1 (Homo sapiens), Q06830 (parent)
# chain: MSSGNAKIGHPAPNFKATAVMPDGQFKDISLSDYKGKYVVFFFYPLDFTFVCPTEIIAFSDRAEEFKKLNCQVIGASVDSHFCHLAWVNTPKKQGGLGPMNIPLVSDPKRTIAQDYGVLKADEGISFRGLFIIDDKGILRQITVNDLPVGRSVDETLRLVQAFQFTDKHGEVCPAGWKPGSDTIKPDVQKSKEYFSKQK
# partner: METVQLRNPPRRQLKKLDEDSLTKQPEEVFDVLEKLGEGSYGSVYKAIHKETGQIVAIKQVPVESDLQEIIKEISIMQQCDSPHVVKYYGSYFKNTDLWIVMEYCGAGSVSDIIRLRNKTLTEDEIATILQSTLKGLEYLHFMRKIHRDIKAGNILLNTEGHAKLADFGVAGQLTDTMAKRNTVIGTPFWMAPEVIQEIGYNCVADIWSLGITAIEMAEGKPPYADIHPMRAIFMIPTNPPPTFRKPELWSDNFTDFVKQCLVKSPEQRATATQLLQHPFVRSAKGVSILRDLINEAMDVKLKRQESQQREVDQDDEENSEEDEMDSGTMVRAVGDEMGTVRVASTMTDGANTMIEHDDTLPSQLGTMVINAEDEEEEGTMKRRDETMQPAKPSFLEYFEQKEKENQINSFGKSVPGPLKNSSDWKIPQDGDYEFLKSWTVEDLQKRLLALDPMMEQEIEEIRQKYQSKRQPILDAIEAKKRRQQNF
# B2: Serine/threonine-protein kinase 4 (Homo sapiens), Q13043 (parent)
# chain: B1 partner
# partner: B1 chain
# Variants of: B1
# Conditions: with stk4_human STK4, Q13043
row,effect of a mutation on the interaction,Variant
1,decreasing interaction,MSSGNAKIGHPAPNFKATAVMPDGQFKDISLSDYKGKYVVFFFYPLDFTFVSPTEIIAFSDRAEEFKKLNCQVIGASVDSHFCHLAWVNTPKKQGGLGPMNIPLVSDPKRTIAQDYGVLKADEGISFRGLFIIDDKGILRQITVNDLPVGRSVDETLRLVQAFQFTDKHGEVSPAGWKPGSDTIKPDVQKSKEYFSKQK [C52S;C173S]

# Variants of: B2
# Conditions: with prdx1_human PRDX1, Q06830
row,effect of a mutation on the interaction,Variant
1,increasing interaction,METVQLRNPPRRQLKKLDEDSLTKQPEEVFDVLEKLGEGSYGSVYKAIHKETGQIVAIRQVPVESDLQEIIKEISIMQQCDSPHVVKYYGSYFKNTDLWIVMEYCGAGSVSDIIRLRNKTLTEDEIATILQSTLKGLEYLHFMRKIHRDIKAGNILLNTEGHAKLADFGVAGQLTDTMAKRNTVIGTPFWMAPEVIQEIGYNCVADIWSLGITAIEMAEGKPPYADIHPMRAIFMIPTNPPPTFRKPELWSDNFTDFVKQCLVKSPEQRATATQLLQHPFVRSAKGVSILRDLINEAMDVKLKRQESQQREVDQDDEENSEEDEMDSGTMVRAVGDEMGTVRVASTMTDGANTMIEHDDTLPSQLGTMVINAEDEEEEGTMKRRDETMQPAKPSFLEYFEQKEKENQINSFGKSVPGPLKNSSDWKIPQDGDYEFLKSWTVEDLQKRLLALDPMMEQEIEEIRQKYQSKRQPILDAIEAKKRRQQNF [K59R]
